Residue numbers refer to the chain shown, from its start.
What was measured:
MBP-YbcN [1] = target: T1, MBP-YbcN (Escherichia coli cryptic prophage DLP12 …, UniProt Q47269 1-151); experiment: EMSA; 5 mM EDTA; three complexes; EMSA: 50 mM Tris-HCl pH 8.0, 5 mM EDTA (or 1 mM MgCl2), 1 mM DTT, 5% glycerol, 100 ug/ml BSA, on ice 15 min, 4% PAGE; anisotropy: 100 mM Tris-HCl pH 7.0, 10 nM; conditions: protein: recombinant; tags: N-terminal MBP; chain copies: 2; label: 5'-32P on strand 1; blunt
T1 sequence: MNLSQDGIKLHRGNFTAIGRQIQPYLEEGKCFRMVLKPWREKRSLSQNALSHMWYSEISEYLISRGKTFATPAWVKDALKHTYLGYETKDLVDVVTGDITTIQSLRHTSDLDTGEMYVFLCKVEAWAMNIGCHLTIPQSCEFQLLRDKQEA

MBP-YbcN [2] = target: T1, MBP-YbcN; experiment: EMSA; 5 mM EDTA; no preference over DS60; EMSA: 50 mM Tris-HCl pH 8.0, 5 mM EDTA (or 1 mM MgCl2), 1 mM DTT, 5% glycerol, 100 ug/ml BSA, on ice 15 min, 4% PAGE; anisotropy: 100 mM Tris-HCl pH 7.0, 10 nM; conditions: protein: recombinant; tags: N-terminal MBP; chain copies: 2; label: 5'-32P on strand 1; blunt, central single G:G mismatch
MBP-Orf [3] = target: T2, MBP-Orf (Bacteriophage lambda, UniProt P03765 1-146); experiment: fluorescence anisotropy; some preference over duplex control; data varied; EMSA: 50 mM Tris-HCl pH 8.0, 5 mM EDTA (or 1 mM MgCl2), 1 mM DTT, 5% glycerol, 100 ug/ml BSA, on ice 15 min, 4% PAGE; anisotropy: 100 mM Tris-HCl pH 7.0, 10 nM; conditions: protein: recombinant; tags: N-terminal MBP; chain copies: 2; label: 3'-fluorescein on strand 1; blunt, central single T:G mismatch
T2 sequence: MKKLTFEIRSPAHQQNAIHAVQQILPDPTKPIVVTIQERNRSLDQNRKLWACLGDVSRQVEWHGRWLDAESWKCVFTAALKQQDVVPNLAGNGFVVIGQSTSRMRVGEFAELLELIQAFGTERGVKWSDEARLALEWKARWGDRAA

[4] = target: the molecule itself; experiment: SDS-PAGE of unboiled samples; purified protein on 12.5% SDS-PAGE without boiling and without a reducing agent, Coomassie blue
[5] = target: T3, E. coli SSB (single-stranded DNA binding protein), wild type (E. coli, UniProt P0AGE0 1-178); experiment: ELISA; SSB wt or mutant (0.5 µg) bound to the microtitre plate in PBS, GST fusion added for 1 hr at 37°C, detected with HRP-anti-GST antibody, A620nm; conditions: both partners purified
T3 construct: also called wt SSB; source: purified as described [13]
T3 sequence (P0AGE0 whole entry, the tested form may be a part): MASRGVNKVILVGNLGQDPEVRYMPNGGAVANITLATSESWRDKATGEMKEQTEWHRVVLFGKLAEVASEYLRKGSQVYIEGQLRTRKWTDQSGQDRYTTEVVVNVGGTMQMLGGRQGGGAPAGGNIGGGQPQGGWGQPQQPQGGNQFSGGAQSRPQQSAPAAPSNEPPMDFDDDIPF

MBP-YbcN [6] = target: T1, MBP-YbcN; experiment: EMSA; 5 mM EDTA; lower affinity than MBP-Orf; EMSA: 50 mM Tris-HCl pH 8.0, 5 mM EDTA (or 1 mM MgCl2), 1 mM DTT, 5% glycerol, 100 ug/ml BSA, on ice 15 min, 4% PAGE; anisotropy: 100 mM Tris-HCl pH 7.0, 10 nM; conditions: protein: recombinant; tags: N-terminal MBP; chain copies: 2; label: 5'-32P; single strand
MBP-Orf [7] = target: T2, MBP-Orf; experiment: EMSA; 5 mM EDTA; EMSA: 50 mM Tris-HCl pH 8.0, 5 mM EDTA (or 1 mM MgCl2), 1 mM DTT, 5% glycerol, 100 ug/ml BSA, on ice 15 min, 4% PAGE; anisotropy: 100 mM Tris-HCl pH 7.0, 10 nM; conditions: protein: recombinant; tags: N-terminal MBP; chain copies: 2; label: 5'-32P; single strand
MBP-Orf R103E = target: T4, MBP-Orf R103E (Bacteriophage lambda, UniProt P03765 1-146, R103E); experiment: EMSA; 5 mM EDTA; up to 500 nM; EMSA: 50 mM Tris-HCl pH 8.0, 5 mM EDTA (or 1 mM MgCl2), 1 mM DTT, 5% glycerol, 100 ug/ml BSA, on ice 15 min, 4% PAGE; anisotropy: 100 mM Tris-HCl pH 7.0, 10 nM; conditions: protein: recombinant; tags: N-terminal MBP; chain copies: 2; label: 5'-32P; single strand
T4 sequence: T2 sequence with R103E

[8] = target: the molecule itself; experiment: static light scattering; 0.2 mg/ml protein in 100 mM Tris-HCl pH 7 at 25°C, Zetasizer µV; mass estimated for a spherical particle
[9] = target: T3, E. coli SSB (single-stranded DNA …); experiment: far-Western; purified SSB wt or mutant (0.5-5 µg) separated on 15% SDS-PAGE, blotted to PVDF, probed with 20-30 µg YbcN or Orf fused to MBP or GST; detected with anti-MBP or anti-GST antibodies; conditions: both partners purified

B1: DS60 (dsDNA)
DNA 1: TTTGGTCTAACTTTACCGCTACTAAATGCCGCGGATTGGTTTCGCTGAATCAGGTTATTA
DNA 2: TAATAACCTGATTCAGCGAAACCAATCCGCGGCATTTAGTAGCGGTAAAGTTAGACCAAA
- binding result (MBP-YbcN [1]): binds

B2: MMG:G (dsDNA)
DNA 1: B1 DNA 1
DNA 2: B1 DNA 2 with C28G
- binding result (MBP-YbcN [2]): binds

B3: MMT:G-fluorescein (dsDNA)
DNA 1: B1 DNA 1
DNA 2: B1 DNA 2 with C28T
- binding result (MBP-Orf [3]): binds

B4: GST-YbcN (N-terminal glutathione S-transferase fusion of DLP12 YbcN) (natural protein, E. coli (cryptic prophage DLP12), UniProt Q47269 1-151, looked up)
chain: T1 sequence
notes: YbcN (orf151), Orf-family protein of E. coli cryptic prophage DLP12; insert of pLB101 moved into pGEX-6P-1; predicted monomer of the GST fusion 44.6 kDa; higher oligomers are put down to dimer-dimer combinations; also called DLP12 GST-YbcN; source: E. coli BL21 Codon Plus carrying pLB108, purified (glutathione sepharose, heparin agarose, Q sepharose); not shown: GST, N-terminal, kept
- stoichiometry N [4]: 4
- binding result [5]: binds

Binder: GGCGACGTGATCACCAGATGATTGCTAGGCATGCTTTCCGCAAGAGAAGC (ssDNA) [SS50]
- binding result (MBP-YbcN [6]): binds
- binding result (MBP-Orf [7]): binds
- binding result (MBP-Orf R103E): no binding

B5: MBP-Orf (bacteriophage λ Orf fused to maltose binding protein), wild type (natural protein)
chain: T2 sequence
notes: Orf (NinB) of bacteriophage λ, a 17 kDa protein; predicted MBP-Orf monomer 59.6 kDa; also called Orf wt; λ MBP-Orf; source: purified as described [13]
- binding result [8]: binds
- binding result [9]: binds

Reference: PMC4118853, “Phage Orf Family Recombinases: Conservation of Activities and Involvement of the Central Channel in DNA Binding” (PLoS ONE, 2014)
